# Experimental data reported in publication PMC7197785 (PLoS Pathogens, 2020).
# T1: MBPEhC2BHis (E. histolytica, UniProt C4M344 1-208)
# T1 construct: also called EhC2B full-length; not shown: MBP, N-terminal, kept; His-tag, C-terminal, kept
# T1 sequence: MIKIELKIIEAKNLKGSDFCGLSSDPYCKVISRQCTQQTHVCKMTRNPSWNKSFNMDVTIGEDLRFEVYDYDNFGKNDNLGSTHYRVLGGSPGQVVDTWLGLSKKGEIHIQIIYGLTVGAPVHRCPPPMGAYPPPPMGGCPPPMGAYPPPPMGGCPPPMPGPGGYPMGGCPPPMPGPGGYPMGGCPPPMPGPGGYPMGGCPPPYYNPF
# How the values were obtained:
# MBPEhC2BHis = molecular target: T1, MBPEhC2BHis; experiment: ITC; conditions: both partners purified
# [1] = molecular target: HisEhC2B121 (E. histolytica); experiment: ITC
binder,measurement,setting,value
"GSTEhRab21 (enzyme, also called GppNHp-GSTEhRab21; GDP-GSTEhRab21; source: recombinant, purified) MENEFKVVLLGEGKVGKTSMILRYTQNFFTPEEGPRTTQASYVSKTLNIDKNDYIINIWDTAGQEKYQALTPIYYRDSQGAILVYDITEPRSFQRVQTEVDNIRDMLGDSCCIVIVGNKMDLVQQRKISKEEADKYAESVKAIHYLCSCATGDGISDVFEGLTKQMVDKRKSLGDDELFDRKKSTLVFQDDKNNTRQAKSDCC",Ka,MBPEhC2BHis,1.24e+07 M⁻¹
same,dH,MBPEhC2BHis,-9.23 kcal/mol
same,stoichiometry N,MBPEhC2BHis,1
same,Ka,[1],9.6e+06 M⁻¹
same,dH,[1],-15.6 kcal/mol
same,stoichiometry N,[1],1
